Results: paper PMC12241602

Assays:
[1] = molecular target: His6-MadB (class I lantibiotic dehydratase MadB) (Clostridium sp. Maddingley); assay: SEC-MALS; 100 uL of 20 uM MadB on Superdex 200 10/300 Increase, 50 mM HEPES pH 8.0, 200 mM NaCl, 0.5 mL/min
[2] = molecular target: His6-MadB (class I lantibiotic dehydratase MadB) (Clostridium sp. Maddingley); assay: cryo-EM structure; single particle cryo-EM of purified apo MadB and of MadB with MadL3, C2 symmetry imposed
[3] = molecular target: His6-MadB (class I lantibiotic dehydratase MadB) (Clostridium sp. Maddingley); assay: nanoDSF; 2 uM His6-MadB with or without 10 uM ligand peptide, 10 min at room temperature, 50 mM HEPES, 500 mM NaCl, pH 7.5, ramp 1 °C/min from 25 to 95 °C, intrinsic fluorescence 330/350 nm

Substance	stoichiometry N [1]	stoichiometry N [2]	Tm shift [3] [°C]
His6-MadB (class I lantibiotic dehydratase MadB) (enzyme)	2	2	
MadL1 (isolated leader peptide of maddinglicin A)			1.8
